# According to the DeepSol protein solubility set:
# Experiment: soluble on expression in E. coli; label from the status in PepcDB or PDB records
row,Sequence,soluble on expression in E. coli
1,MDNILNYPTSTHVDRLVPKTAFYKHLEINTRLKMRFVEDVERIQWLYKLAPSTMNVDTGKTVHEIVMFLVTLKAEDMPDDVFLAIDRQMPRHVVFVLQYANRGRLLLNYKEWVDANKTRFNILKTFRTEWMPLAKVKLELAGSSLDNIYEAFAGQISGFGTTNAADTKQIMALQDELARKRRAAEALQKRVRNERQFAKQMELNSEARALKREIAKLEEVLKTLENN,not soluble
2,MDNLQKYKPTDKMIDLISDNYSLLQVMSRFGLSLGFGDKTVKEVCELNGVDCRTFLIVVNFMSEGFSRMDGSSEDISIPALIDYLRQAHIYFLDFSLPAIRRKLIEAIDCSQDDVAFLILKFFDEYTREVRKHMDYEEKTVFKYVDALINGNAPRNYQISTFSKHHDQVGEKLTELKNIIIKYCPAKANENLLNAALFDIYACEAGLESHCKVEDYIFVPAILKLERRIRENEK,not soluble
3,MDPDLWEETGHNSELLLRLLPAARLTAVARDPQYTGRLEQVWQQYRTYLGAPVNRGNLPGLESNQVIAYFSAEFGLSEALPIYAGGLGFLAGDHLKSASDLGLPLVGVGLLYREGYFRQRLDRRGQQREVYSRYDFYQLPLELERRADGSPLEVQVNFPDPDRQVRARVWRARVGRLNLYLLDSDCPGNLEADRLITDRLYGGDLEKRIQQEILLGIGGVRALAALGINATIFHLNEGHSAFLGLERIRQLQARYGLDLASARELATCSNIFTTHTPVPAGIDVFPPYLMDKYFTEYYQSLGLSRHEFLALGRQDPNNQQEPFNMAVLALRLSAWANGVSQLHGQTARRMWQVIWPGVPVAEIPIGAITNGVHTTSWVGEKMAALYDRYLGTAWRELEHHHHHH,not soluble
4,MDPTEMRYLEEENGAMMKTFKDAVTGFATGKTSLVFIGVEQLVQNFRAKRDFFNGAHITMTKVARTHY,soluble
5,MDPTRGLCALSTHDLAKFHSLPPARKAAGKRAHLRCYSKLLSLKSWEQLASFLSLPPGPTFTDFRLFFEVTLGRRIADCVVVALQPYPRCYIVEFKTAMSNTANPQSVTRKAQRLEGTAQLCDCANFLRTSCPPVLGSQGLEVLAALVFKNQRSLRTLQVEFPALGQKTLPTSTTGLLNLLSRWQDGALRARLDRPRPTAQGHRPRTHVGPKPSQLTARVPRSARAGRAGGRKGQVGAVGQVCPGAQK,not soluble
6,MDQFECINVADAHQKLQEKEAVLVDIRDPQSFAMGHAVQAFHLTNDTLGAFMRDNDFDTPVMVMCYHGNSSKGAAQYLLQQGYDVVYSIDGGFEAWQRQFPAEVAYGA,soluble
7,MDQKEAPSFTEASVHDPSVIKVEDTFYVFGSHLAAAKTEDLRNWTQIATHVHEGNPLIPNVFVELAEAFEWANSNTLWAADVIQLEDGRFYMYYNACQGDAPRSALGVAVADDIEGPYENLGVFLKSGMWGEESPDGTIYDANVHPNAIDPHVFFDEEGKLWMVYGSYSGGIFILEMDPDTGFPLPGQGYGTHLMGGNHSRIEAPYIHYDKETEYYYLYVTFGGLDSTGGYNMRVARSKQPDGPYVDGEGHLMSEVRGAPGTLFDDASIEPYGVKQMGNFLFKRELGERGTGYVSPGHNSVYYDDEVDKIFLFFHTRFPERGEAHEIRVHQMFMNRKGWPVIAPYRYTGESLEKVKAKEVIGDYQWINHGKEISAEIKESVTVRLEKNHKVLGDVTGKWKKVGDYHVELQIDGETYYGVFLRQWDPVAEREVMTFTALSEEGIAIWGSQLEEKTDNEIVDAVYDDLTLEGTIISDVELPTRGMRQTTIAWSSSHEEVLSSSGKVNRPEIGEDDVVVSLTATISKGSAERIKTFELVVPGQTEGGLVAHYPLNGTLENAVDDARFGSGTVTGNRIDNPGGTIAFEQGIDGEAAVFDGTTGIRLPNGLISRNTYTVSFWLNPEQLTEFTTAFFAARSEHHWLSFVPRGHSGMNHDTMLWAGSAQWYDAGTGVKLPVGEWSHVAFSVDNGEIVIYLNGEERFRGENFPNLFTTPNAYFALGVNHWDAPFQGMIDELRIYDGVALTREEIVHLAKQKLEHHHHHH,soluble
8,MDQLEHLSLVSKVLSEVENHFGVVEKDVAEFVIHLAQENPTFDKLKKALDSQGLGDQFDDSLTATILRIVQSMTAVKKKNKKGGDSKEDIKDSHKITLISDAKEEIKARLPALAMANTAKEKEDNEDDLMAQLEKMEGRYESEKRLQKESDSKRNRSRSRSRSRDRKRRRSRSGDRDRRRRSRSREDRRDRDRRDRDRDRDRGRGDRRGDDRQRDRRDRRDDGGARKSEVAEIGKIYDGRVNSIQSFGAFITLEGFRQKQEGLVHISQIRNERVQTVADVLKRGENVKVKVNKIENGKISLSMKEVDQNSGEDLNPRETDLNPDAIGVRPRTPPASTSSWMNPEASGVGQGPSTSIGGGKARVRISTPERWELRQMQGAGVLTATDMPDFDEEMGVLRNYDDESDGEDIEIELVEDEPDFLRGYGKGGAEIEPVKVVKNPDGSLAQAALMQGALSKERKETKIQAQRERDMDTQKGFSSNARILDPMSGNQSTAWSADESKDRNNKMKEMPEWLKHVTAGGKATYGRRTNLSMVEQRESLPIFALKKNLMEAMIDNQILVVVGETGSGKTTQMTQYAIEAGLGRRGKIGCTQPRRVAAMSVAKRVAEEYGCKLGTDVGYTIRFEDCTSQDTIIKYMTDGMLLRECLIDPDLSGYSLIMLDEAHERTIHTDVLFGLLKAAARKRPELKLIITSATLDSVKFSEYFLEAPIFTIPGRTFPVEILYTREPESDYLEAAHITVMQIHLTEPPGDVLVFLTGQEEIDTSCEVLYERMKSMGPDVPELIILPVYGALPSEMQTRIFDPAPAGKRKVVIATNIAETSLTIDGIFYVVDPGFVKQKIYNPKSGMDSLVVTPISQAAAKQRSGRAGRTGPGKCYRLYTERAFRDEMLPTPVPEIQRTNLASTLLQLKAMGINNLIDFDFMDAPPLDSMITALNTLHTLSALDGDGLLTKLGRRMAEFPLEPSLSKLLIMSVDLGCSEEVLTIVAMLNVQNIFYRPKEKQDHADQKKAKFHQPEGDHLTLLAVYNSWKNHHFSQPWCFENFIQVRSMKRAQDIRKQLLGIMDRHKLLMVSCGRDVSRVQKAICSGFFRNAAKRDPQEGYRTLTDGQNVYIHPSSACFQQQPEWVVYHELVMTTKEYMREVTAIDPKWLVEFAPSFFKIGDSTKLSTFKRNQKIDPLFDKYADANAWRITRVKKRIYNPNK,soluble
9,MDQLQIKDLEMFAYHGLFPSEKELGQKFIVSAILSYDMTKAATDLDLTASVHYGELCQQWTTWFQETSEDLIETVAYKLVERTFESYPLVQEMKLELKKPWAPVHLSLDTCSVTIHRRKQRAFIALGSNMGDKQANLKQAIDKLRARGIHILKESSVLATEPWGGVEQDSFANQVVEVETWLPAQDLLETLLAIESELGRVREVHWGPRLIDLDLLFVEDQILYTDDLILPHPYIAERLFVLESLQEIAPHFIHPILKQPIRNLYDALKK,soluble
10,MDQQSTRTDITVNVDGFWMLQALLDIRHVAPELRCRPYVSTDSNDWLNEHPGMAVMREQGIVVNDAVNEQVAARMKVLAAPDLEVVALLSRGKLLYGVIDDENQPPGSRDIPDNEFRVVLARRGQHWVSAVRVGNDITVDDVTVSDSASIAALVMDGLESIHHADPAAINAVNVPMEEMLEATKSWQESGFNVFSGGDLRRMGISAATVAALGQALSDPAAEVAVYARQYRDDAKGPSASVLSLKDGSGGRIALYQQARTAGSGEAWLAICPATPQLVQVGVKTVLDTLPYGEWKTHSRV,soluble
11,MDRFENMNAFVRVVETGSISAAADRMDIAKSVVSRRLKELEEHLGVELFHRTTRQMNLTDSGRAFYQQSVRILADVLEAEHATSQFHGRLKGHLKVAVPLSFGLMHLGAAISTFLQTHPDIEFDLDFNDRQVDLLAEGFDLAIRIANLPDSSLIARRLAPIQAVMCASPAYLERMGTPQAPEELIRHRCLVYNLVSHSDNWNVYGTTGELIKTRIIPYLKASNGEFLRDAAVDGLGIVLLPTFIVYREIQRGALIPILTGYHYAQLAAYAIYPQTRHLSQRVRAFVDFLSQRFEGMPYWDACLNQ,not soluble
12,MDRHTTEGWRRWAARLGAAAMALLLAACAAPRQQAASVDELPSWNDGPSRTAIVEFVRAVTRSGGPDFVAADERIAVFDNDGTLWSEQPMYFQMLFALDRVKSMAPRHPDWARRQPFKAALQDDHAALAKGGDVALMKIVGATHTDMSTDTFTRSVRYWASTARHPRFDRLYTELTFAPMRELLDYLRAHGFKTYIVSGGETEFMRSWTQQAYGIPPEQVIGSSFVTTYGVRDGEPTLWRHGKLEFNDDGPGKPVAIQRYIGRRPILAFGNSDGDLQMLQWTAAGDGKRFAGLVHHTDAQREWAYDRDSRIGRLDRALDEARRQDWTVVDMKTEWKRVYAFEQP,not soluble
13,MDRIQENQKKATNLCELYADGNDDDSEKEQQDRGLDAQFLLRSTPEDVEKYMIHVRKQLMEGEGECLVELGAPINSNSKNPKSGLSEEDLDKAADAQLKILEKIPAVGTKVIRRKQTGGGSLFTEVWIIRDPPTEKDFIEARVAVVGNVDAGKSTLLGVLTHSALDDGRGAARTKLFRHKHEFESGRTSSVGNDILGFDVHGNIVNKPDPHNHNLDWVQIGSDCAKLVTFIDLAGHEKYLKTTIFGMTGHMPDYTMLMIGANMGIIGTTKEHLSLALSLHVPVYLVVTKIDMCPANILEETMKNITRLVRSAKKLPILVRNMDDVVHAAVNFPSKKVCPIFQVSNVEGTNLPLLRQFLNIVPLRRQLNENDPAHFQIDDIYWVDGVGTIASGTLLSGTIRLNDILLLGPTSNGDFMPIPIKSIHRKRMPVGIVKCGQSASFALKKIPKKDVRKGMVLVDPKVKPVASMVFEAEILVLHHPTTIKPNYQAMLHIGSVRQTATLVSMGKEVLRTGDRDKVQFKFIRQPEYIRPGTKMVFREGRTKAVGTVSSVVPQESLAQQRAKQKDGRQKQYGKKSMGPKPPNGKPKEKIEKKLDALSIEQLTSAASTSTSST,not soluble
14,MDRLIRSLLMNQNKQATDKLDHPDTSETVNISSLALLKMLRHARSGIPLEVMGLMLGDFVDDYTINVTDVFAMPQSGTSVTVESVDPVYQTKHMDLLKLVGRTENVVGWYHSHPGFGCWLSSVDVNTQQSFEALHPRAVAVVVDPIQSVKGKVMLDAFRSVNPLNLQIRPLAPTAEPRQTTSNLGHLTKPSLISVVHGLGTKYYSLNVAYRMGSNEQKMLMCLNKKSWYDQLNMSTYSELEKKQEEKFKSINKLIAVFNKDIDEVKEKPIADKKGKTQEEVKKFGKINAKQQLQMITSSLLNDSLCHQLTAMINAKSMT,not soluble
15,MDRNSLSNSLKTCYKYLNQTSRSFAAVIQALDGEMRNAVCIFYLVLRALDTLEDDMTISVEKKVPLLHNFHSFLYQPDWRFMESKEKDRQVLEDFPTISLEFRNLAEKYQTVIADICRRMGIGMAEFLDKHVTSEQEWDKYCHYVAGLVGIGLSRLFSASEFEDPLVGEDTERANSMGLFLQKTNIIRDYLEDQQGGREFWPQEVWSRYVKKLGDFAKPENIDLAVQCLNELITNALHHIPDVITYLSRLRNQSVFNFCAIPQVMAIATLAACYNNQQVFKGAVKIRKGQAVTLMMDATNMPAVKAIIYQYMEEIYHRIPDSDPSSSKTRQIISTIRTQN,soluble
16,MDRVRNLLEQIQGRLDELNKAERKVAEVILLNPQMATRLSIAALAQAAKVSEPTVNRFCRSFSVSGYPELKLQLAQSLASGAAYVSRAVEADDNPEAYTQKIFGSAIASLDSACQQLDPALVSKSVDMLIQARQIHFFGLGASAPVALDAQHKFFRFNLAVTAHADVLMQRMIASVAHTGELFVIISYTGRTRELVEVARIARANGASVLGLTAAGSPLAQASTVSLNIPLPEDTDIYMPMTSRIIQLTVLDVLATGMTLRRGVDFQPHLRKIKESLNDSRYPIEDQG,not soluble
